Values quoted from earlier work, collected in article PMC2574613.

Molecular target: glycoprotein Ibα (Homo sapiens) (UniProt P07359)
Sequence (P07359 17-652): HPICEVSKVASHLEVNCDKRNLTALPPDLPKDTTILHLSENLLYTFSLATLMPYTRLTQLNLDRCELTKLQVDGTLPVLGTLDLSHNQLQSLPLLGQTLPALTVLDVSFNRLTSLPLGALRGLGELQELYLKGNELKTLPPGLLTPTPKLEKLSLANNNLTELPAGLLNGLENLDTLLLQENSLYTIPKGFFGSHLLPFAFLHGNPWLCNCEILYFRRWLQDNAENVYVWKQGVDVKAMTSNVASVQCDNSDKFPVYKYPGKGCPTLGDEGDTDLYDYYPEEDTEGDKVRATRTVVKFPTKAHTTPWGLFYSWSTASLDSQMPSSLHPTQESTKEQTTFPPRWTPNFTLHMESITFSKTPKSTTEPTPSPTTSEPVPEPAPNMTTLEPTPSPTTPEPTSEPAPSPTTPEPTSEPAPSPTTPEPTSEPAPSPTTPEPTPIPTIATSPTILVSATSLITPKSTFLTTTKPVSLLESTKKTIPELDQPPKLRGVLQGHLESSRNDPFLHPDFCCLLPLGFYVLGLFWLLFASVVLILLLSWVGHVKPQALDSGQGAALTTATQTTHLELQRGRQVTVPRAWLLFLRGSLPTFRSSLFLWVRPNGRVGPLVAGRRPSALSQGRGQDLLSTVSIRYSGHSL

GspB N-terminal basic region, sequence (Q939N5 237-603): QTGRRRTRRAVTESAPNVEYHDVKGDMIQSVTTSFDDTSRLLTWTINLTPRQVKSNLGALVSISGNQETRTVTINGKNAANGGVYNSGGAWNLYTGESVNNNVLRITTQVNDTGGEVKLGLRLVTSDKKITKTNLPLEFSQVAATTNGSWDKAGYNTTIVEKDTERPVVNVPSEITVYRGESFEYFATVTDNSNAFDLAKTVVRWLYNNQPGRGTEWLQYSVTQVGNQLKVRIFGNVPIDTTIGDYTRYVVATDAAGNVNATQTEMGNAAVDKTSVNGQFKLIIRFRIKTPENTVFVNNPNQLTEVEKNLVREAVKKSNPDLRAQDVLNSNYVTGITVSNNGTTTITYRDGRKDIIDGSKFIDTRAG

Substance: GspB N-terminal basic region (from UniProt Q939N5)
- Kd: 23.8 nM
